From US20250084143A1 (INSERM INSTITUT NATIONAL DE LA SANT ET DE LA RECHERCHE M …, published 2025) come the findings set out here.

In this assay the target is T1, biotin-tagged HLA-A*03:01 monomers (immunAware) (human, biotin tag).
T1 construct: Bought recombinant monomer folded with the test peptide; also called HLA-A3; A3
In words: flow cytometry on streptavidin beads: folding of biotinylated HLA-A*03:01 monomer around the peptide, detected with anti-b2m; 1.2 nM complex. In general terms: In flow cytometry, cells or beads pass a laser one at a time.

Description: Experimental binding to HLA-A3 was measured by flow cytometry using biotin-tagged HLA-A*03:01 monomers (immunAware). […] The bead-associated fluorescence is only detected if the test peptide supports the folding of the HLA-A3 complex. […] The HLA-A3-binding peptide Flu NP₂₆₅₋₂₇₃ ([sequence]), and a non-binding peptide CHGA₃₈₂₋₃₉₀ ([sequence]) were included as positive and negative controls, respectively.
A first selection was performed based on a novel HLA Class I binding assay that we set up. Briefly, the same biotinylated recombinant HLA-A3 monomeric molecules that are used for MMr production are folded with the test peptides and captured on streptavidin-coated beads.

Consider RLKPSLVGK (From the SCG5-009 mRNA splice variant) [SCG5-009 193-201 peptide], for which the binding result is recorded as “binds”.
